{"source": "patent CN118638216A", "about": "(CHENZHOU NO 1 PEOPLES HOSPITAL, dated 2024)", "key": {"[1]": {"biological_target": "SARS-CoV-2 Gamma突变株S蛋白 (假病毒, Genebank:MZ427312.1) (SARS-CoV-2 Gamma突变株)", "assay": "cell-based or functional assay"}, "[2]": {"biological_target": "T1, SARS-CoV-2 Wuhan-Hu-1 S蛋白(Sino Biological，货号:40589-V08B1) (SARS-CoV-2 Wuhan-Hu-1, UniProt P0DTC2 14-1213)", "T1 construct": "extracellular domain", "assay": "ELISA screen, S protein coated at 2 μg/mL, antibody at 1 μg/mL"}, "SARS-CoV-2 S2蛋白(Sino …)": {"biological_target": "T2, SARS-CoV-2 S2蛋白(Sino Biological，货号:40590-V08B) (SARS-CoV-2, UniProt P0DTC2 686-1213)", "T2 construct": "domain: S2", "assay": "ELISA, S2 protein coated at 2 μg/mL, antibody at 1 μg/mL, anti-human IgG-HRP"}, "SARS-CoV S1蛋白(Sino …)": {"biological_target": "SARS-CoV S1蛋白(Sino Biological，货号:40150-V08B1) (SARS-CoV, UniProt P59594 14-667)", "assay": "ELISA, S1 protein coated at 2 μg/mL, antibody titrated from 10 μg/mL"}, "SARS-CoV-2 S1蛋白(Sino …)": {"biological_target": "T3, SARS-CoV-2 S1蛋白(Sino Biological，货号:40591-V08H) (SARS-CoV-2, UniProt P0DTC2 16-685)", "T3 construct": "domain: S1", "assay": "ELISA, S1 protein coated at 2 μg/mL, antibody at 1 μg/mL"}}}
{"binder": "全人源广谱抗sarbecovirus和/或新冠突变株的抗体(VSCM8-83) (antibody, V domains shown) VH: EVQLVEFGGGLVQPGGSLRLSCAASGFAVSSNYMSWVRQAPGKGLEWVSVIYGDGTTYYGDSVKGRFTISRHNSKNTLYLQMNSLRTEDTAVYYCARIVSEAFDLWGQGTMVTVSS VL: DIQMTQSPSTLSASVGDRVTITCRASQSIGRWLAWYQQKPGKAPKLLIYMASILESGVPSRFSGSGSATEFTLTISSLQPDDFATYYCQQYNGYSQYTFGQGTKLEIKR", "values": [{"measurement": "假病毒中和 IC50", "setting": "[1]", "result": 0.0207, "unit": "µg/mL"}, {"measurement": "binding result", "setting": "[2]", "result": "binds"}, {"measurement": "binding result", "setting": "SARS-CoV-2 S2蛋白(Sino …)", "result": "no binding (tested: 1μg/mL)"}, {"measurement": "binding result", "setting": "SARS-CoV S1蛋白(Sino …)", "result": "binds"}, {"measurement": "binding result", "setting": "SARS-CoV-2 S1蛋白(Sino …)", "result": "binds"}]}
